Here are results for 16 variants from the supplement of paper PMC7125110.

The labels stand for the following.
B1: glmS ribozyme (parent)
chain: AUAAAAGCGCCAGAACUACAGAAAUGUAGUUGACGAGGAGGAGGUUUAUCGAAUUUUCGGCGGAUGCCUCCAAA

Holding throughout (settings): with glucosamine-6-phosphate
The variants in data set [1] derive from B1. The data set is described as follows: self-cleavage kobs at 160 uM GlcN6P; higher = faster cleavage; RNA array. In short, it runs like this:
(§1)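 E. coli RNA polymerase transcribed barcoded ribozyme variants in situ on sequenced MiSeq chips, which were tracked via a hybridised Cy3 probe at 37 °C. Tiles were imaged over ~14 h after glucosamine-6-phosphate (40 μM to 10 mM) in HEPES/KCl/Mg(OAc)2 buffer was flowed in. Normalised per-tile medians were fit to one- or two-exponential decays for kobs, and kcat and KM came from weighted Michaelis–Menten fits.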

In data set [2] the parent is B1. Put plainly: self-cleavage kobs at 640 uM GlcN6P; higher = faster cleavage; RNA array. In short, it runs like this: as §1
Variants of B1 are the subject of data set [3]. The data set is described as follows: self-cleavage kobs at 2500 uM GlcN6P; higher = faster cleavage; RNA array. In short, it runs like this: as §1
Variants of B1 are the subject of data set [4]. The data set is described as follows: self-cleavage kobs at 10000 uM GlcN6P; higher = faster cleavage; RNA array. In a few lines: as §1

± gives the standard error. Fewer inactive variants are shown than the library holds.

Turning to AUAAAAGCGCCAGAACUACAGAAAUGUAGUUGACGAGGAGGAGGUUUAUCGAAUUUGCGGCGGAUGCCGCCAAA, the “self-cleavage kobs at 160 uM GlcN6P” value in data set [1] was determined as 8.11e-05 ± 1.7e-05 s⁻¹. In data set [2], the “self-cleavage kobs at 640 uM GlcN6P” value turned out to be 0.000113 ± 2.8e-05 s⁻¹. In data set [3], the “self-cleavage kobs at 2500 uM GlcN6P” value amounted to 4.87e-05 ± 1.6e-05 s⁻¹.

Consider AUAAAAGCGCCAGGACUACAGAAAUGUAGUCGACGAGGAGGAGGUUUAUCGAAUUAUCGGCGGAUGCCUCCAAA, for which, in data set [1], the “self-cleavage kobs at 160 uM GlcN6P” value was 0.0016 ± 0.00031 s⁻¹. In addition, in data set [2], the “self-cleavage kobs at 640 uM GlcN6P” value amounted to 0.00939 ± 0.0013 s⁻¹. The “self-cleavage kobs at 2500 uM GlcN6P” value in data set [3] came to 0.0277 ± 0.0066 s⁻¹.

AUAAAAGCGCCAGAACUACAGAAAUGUAGUUGACGAGGAGGAGUUUUAUAGAAUUUUCGGCGGAUGCCUCCAAA: in data set [1], the “self-cleavage kobs at 160 uM GlcN6P” value is less than 1e-05 s⁻¹. Moreover, the “self-cleavage kobs at 640 uM GlcN6P” value in data set [2] is less than 1e-05 s⁻¹. In addition, the “self-cleavage kobs at 2500 uM GlcN6P” value in data set [3] was less than 1e-05 s⁻¹. In addition, the “self-cleavage kobs at 10000 uM GlcN6P” value in data set [4] is less than 1e-05 s⁻¹.

With AUAAAAGCGCCUGAACUACAGAAAUGUAGUUGACAAGGAUGAGGUUUAUCGAAUUUUCGGCGGAUGCCUCCAAA, the “self-cleavage kobs at 160 uM GlcN6P” value in data set [1] is less than 1e-05 s⁻¹. Besides, the “self-cleavage kobs at 640 uM GlcN6P” value in data set [2] was less than 1e-05 s⁻¹. Moreover, the “self-cleavage kobs at 2500 uM GlcN6P” value in data set [3] is less than 1e-05 s⁻¹.

For AUAAAAGCGCCAGAAUUACAGAAAUGUACUUGACGAGGAGGAGUUUUAUCGAAUUUUCGGCGGAUGGCUCCAAA, in data set [1], the “self-cleavage kobs at 160 uM GlcN6P” value was 0.000224 ± 0.0001 s⁻¹.

AUAAAAGCGCUAGAACUACAGAAAUGUAGUUGACGAGGGGGAUGUUUAUCGAAUUUUGGGCGGAUGCCUACAAA: the “self-cleavage kobs at 160 uM GlcN6P” value in data set [1] was less than 1e-05 s⁻¹. The “self-cleavage kobs at 2500 uM GlcN6P” value in data set [3] is less than 1e-05 s⁻¹.

For the variant AUAAAAGCGCCAGAACUACAGAAAUGUAGUUGAGGAGGAGGAGGUUUAUCGAAUUUUUGGCGGCUGGCUCCAAA, the “self-cleavage kobs at 160 uM GlcN6P” value in data set [1] was 4.06e-05 ± 2e-05 s⁻¹. In data set [2], the “self-cleavage kobs at 640 uM GlcN6P” value turned out to be 7.23e-05 ± 2.6e-05 s⁻¹.

With AUAAAAGCGCCAGUACUACAGAAAUGUAGUGGACGAGGAGGAGGUUUAUCGAAUUUUCGGCGGAUGACUCCAAA, the “self-cleavage kobs at 160 uM GlcN6P” value in data set [1] was determined as 7.69e-05 ± 2.3e-05 s⁻¹. Also, the “self-cleavage kobs at 640 uM GlcN6P” value in data set [2] was 0.000354 ± 7.7e-05 s⁻¹. Besides, the “self-cleavage kobs at 2500 uM GlcN6P” value in data set [3] worked out at 0.000746 ± 0.00014 s⁻¹.

Regarding AUAAAAGAGCCAGAACUACAGAAAUGUACUUCACGAGGAGGAGGUUUAUCGAAUUUUCGGCGGAUGCCUCCAAA, the “self-cleavage kobs at 160 uM GlcN6P” value in data set [1] was less than 1e-05 s⁻¹.

AUAAAAGCGCCAGAACUACAGAAAUGUAGUUGAUGAGGAGGAGGUUUAGCGUAUUUUCGGCGGAUGCCUCCAAA: the “self-cleavage kobs at 160 uM GlcN6P” value in data set [1] was less than 1e-05 s⁻¹. The “self-cleavage kobs at 2500 uM GlcN6P” value in data set [3] is less than 1e-05 s⁻¹. Moreover, in data set [4], the “self-cleavage kobs at 10000 uM GlcN6P” value is less than 1e-05 s⁻¹.

Consider AUAAAAGCGCCAGAACUACAGAAAUGUAGUGGACGAGGAGGAUGUUUAUCGAAUUUUCGGCGGAUUCCUCCAAA, for which the “self-cleavage kobs at 160 uM GlcN6P” value in data set [1] was less than 1e-05 s⁻¹. Further, the “self-cleavage kobs at 2500 uM GlcN6P” value in data set [3] was less than 1e-05 s⁻¹.

Consider AUAAAGGCGCCAGACCUACAGAAAUGUAGUUGACGAGGAGGAGGAUUAUCGAAUUUUCAGCGGAUGCCUCCAAA, for which the “self-cleavage kobs at 160 uM GlcN6P” value in data set [1] was less than 1e-05 s⁻¹. The “self-cleavage kobs at 640 uM GlcN6P” value in data set [2] was less than 1e-05 s⁻¹. The “self-cleavage kobs at 2500 uM GlcN6P” value in data set [3] was less than 1e-05 s⁻¹.

For the variant AUAAAAGCGCCAGAACUACAGAAAUGUAGUUGACGAGGAGGCGGUUUAUCUACUUUUCGGCGGAUGCCUCGAAA, the “self-cleavage kobs at 160 uM GlcN6P” value in data set [1] was less than 1e-05 s⁻¹.

As to AUAAAACCGCCAGAACUACAGAAAUGUAGUUGACGAGGAGGAGGUUUAUAGAAUUUUCGGCGGAUGCCUCCAAA, the “self-cleavage kobs at 160 uM GlcN6P” value in data set [1] was less than 1e-05 s⁻¹. Further, the “self-cleavage kobs at 640 uM GlcN6P” value in data set [2] was less than 1e-05 s⁻¹. In addition, the “self-cleavage kobs at 10000 uM GlcN6P” value in data set [4] was less than 1e-05 s⁻¹.

Take AUAAAAGCGACAGAACUACAGAAAUGUAGUUGGCGUCGAGGAGGUUUAUCGAAUUUUCGGGGGAUGCCUCCAAA: the “self-cleavage kobs at 160 uM GlcN6P” value in data set [1] was less than 1e-05 s⁻¹. Besides, the “self-cleavage kobs at 640 uM GlcN6P” value in data set [2] was less than 1e-05 s⁻¹.

Take AUAAAAGCGCCAGAACUACAGAAAUGUAGUUGACGAAGAGGAGGUUUAUCAAAUUUUCGGCGGAUGCCUCAAAA: in data set [1], the “self-cleavage kobs at 160 uM GlcN6P” value was less than 1e-05 s⁻¹. The “self-cleavage kobs at 2500 uM GlcN6P” value in data set [3] was less than 1e-05 s⁻¹.
